Reference: patent US20020045591A1, “Methods and therapeutic compositions for treating cancer” (priority 1998, published 2002)

What was measured:
[1] = tested on: β-catenin-mediated transactivation; test: TOPFLASH luciferase transactivation in SW480 cells (Example 1); type: cell-based, human; settings: SW480 cells transfected with TOPFLASH and N-cadherin derivative, FIG. 6A
Procedure: (§1) Cell culture and transfections: CHO and SW480 human colon carcinoma cells were cultured in Dulbecco's modified Eagle's medium containing 10% fetal calf serum in an 8% CO2 incubator at 37° C. Transfections were performed using Lipofectamine (Gibco, BRL, USA) according to the manufacturer's instructions. Stably transfected CHO clones were generated by co-transfection with a plasmid encoding the puromycin resistance gene. Two days after transfection, cells were replated in the presence of 10 μg/ml puromycin (Sigma, Holon, Israel). Stable clones were isolated 2 weeks later and tested for the expression of the transgene by Western blot analysis.
(§2) Transactivation assays: CHO cells were transfected with TOPFLASH or FOPFLASH vectors (van de Wetering et al., 1997, ibid) and with pCDNA3 coding for β-galactosidase to normalize for transfection efficiency. The transfection mixture also contained either β-catenin, LEF-1 or cadherin derivatives in different combinations, as indicated. SW480 cells were transfected with TOPFLASH and cadherin derivatives. […] The reactions were stopped with 1 M Na2CO3 and the absorbance at 420 nm was determined. […] The luciferase reaction was monitored by a TD-20e luminometer (Turner, USA) and normalized for the β-galactosidase activity. […]

CHO cells = test: Immunofluorescence localization in CHO cells; type: cell-based; settings: stably transfected CHO cells, FIG. 4
Excerpt: Immunofluorescence microscopy: Cells cultured on glass coverslips were fixed with 3% paraformaldehyde in phosphate-buffered saline (PBS) and permeabilized with 0.5% Triton X-100. CHO cells were immunofluorescently labeled as described (Levenberg S. et al. (1998) Long-range and selective autoregulation of cell-cell and cell-matrix adhesions by cadherin or integrin ligands. J. Cell Sci. 111:347-357). Nuclei were visualized using DAPI and the fluorescence was examined using a Zeiss Axiophot microscope and a x100/1.3 Planapochromat objective.

[2] = tested on: β-catenin-mediated transactivation; test: TOPFLASH/FOPFLASH luciferase transactivation in CHO cells; type: cell-based; settings: TOPFLASH, FIG. 5A lanes 7-9
Procedure: as §1, §2

B1: N-cadherin tail: Cytoplasmic domain of chicken N-cadherin tagged with a Flag epitope (protein)
chain: MKRRDKERQAKQLLIDPEDDVRDNILKYDEEGGGEEDQDYDLSQLQQPDTVEPDAIKPVGIRRLDERPIHAEPQYPVRSAAPHPGDIGDFINEGLKAADNDPTAPPYDSLLVFDYEGSGSTAGSLSSLNSSSSGGEQDYDYLNDWGPRFKKLADMYGGGDD
modifications: left off: small tags and cut ends
inhibition of TOPFLASH reporter (luciferase) activity [1]: more than 85% | subcellular localization of cadherin derivative and β-catenin (CHO cells): mainly localized in the nucleus | luciferase activity (LEF-1 transactivation) after transfection with LEF-1 and cadherin derivative [2]: no specific transactivation was detected
